# B1: Ras-related protein Rab-8A (Homo sapiens), P61006 (parent)
# chain: MAKTYDYLFKLLLIGDSGVGKTCVLFRFSEDAFNSTFISTIGIDFKIRTIELDGKRIKLQIWDTAGQERFRTITTAYYRGAMGIMLVYDITNEKSFDNIRNWIRNIEEHASADVEKMILGNKCDVNDKRQVSKERGEKLALDYGIKFMETSAKANINVENAFFTLARDIKAKMDKKLEGNSPQGSNQGVKITPDQQKRSSFFRCVLL
# Variants of: B1
# Details: with tfr1_human TFRC
row,effect of a mutation on the interaction,Variant
1,decreasing interaction,T22N
